From US20250297004A1, “NECTIN-4 BINDING AGENTS” (INNATE PHARMA, priority 2022, published 2025)
Where a chain is given by its changes, count along the chain named. Blank lines part the entries; values can stand above or below the binder they belong to.

Columns and labels:
human Nectin-4 Mutant 1 = biological target: T1, human Nectin-4 Mutant 1 (human, UniProt Q96NY8 32-510); assay: binding to HEK293T cells expressing Nectin-4 mutant; '-' means association does not occur
T1 construct: Expressed on transfected HEK293T cells; also called S58P/G59D/Q61A/N106D/P107A
T1 chain: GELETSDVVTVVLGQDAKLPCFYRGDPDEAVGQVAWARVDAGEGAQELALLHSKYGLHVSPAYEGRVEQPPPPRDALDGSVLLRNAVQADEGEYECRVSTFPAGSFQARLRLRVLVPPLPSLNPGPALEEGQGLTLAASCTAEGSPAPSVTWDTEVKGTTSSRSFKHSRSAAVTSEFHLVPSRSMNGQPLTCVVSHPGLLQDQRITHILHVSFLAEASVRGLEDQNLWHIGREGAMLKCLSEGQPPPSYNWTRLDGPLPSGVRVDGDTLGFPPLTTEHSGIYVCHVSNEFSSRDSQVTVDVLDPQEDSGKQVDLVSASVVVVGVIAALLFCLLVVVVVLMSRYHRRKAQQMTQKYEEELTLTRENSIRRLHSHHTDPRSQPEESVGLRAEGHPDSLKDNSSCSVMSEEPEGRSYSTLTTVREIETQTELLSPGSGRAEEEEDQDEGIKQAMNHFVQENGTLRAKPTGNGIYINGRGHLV

human Nectin-4 Mutant 7 [1] = biological target: T2, human Nectin-4 Mutant 7 (human, UniProt Q96NY8 32-510); assay: binding to HEK293T cells expressing Nectin-4 mutant
T2 construct: Expressed on transfected HEK293T cells; also called S195A/K197T/S199A
T2 chain: T1 chain with P27S, D28G, A30Q, D75N, A76P, S164A, K166T, S168A

[2] = biological target: T3, human Nectin-4 expressed on cells (human, UniProt Q96NY8 32-510); assay: cell-based or functional assay
T3 sequence: T1 chain with P27S, D28G, A30Q, D75N, A76P

[3] = biological target: T3, human Nectin-4 expressed on cells; assay: cell-based or functional assay; remark: listed apart in the source
[4] = biological target: human Nectin-4 (protein used in the SPR affinity measurements) (human) (UniProt Q96NY8); assay: SPR
human Nectin-4 Mutant 7 [5] = biological target: T2, human Nectin-4 Mutant 7; assay: binding to HEK293T cells expressing Nectin-4 mutant; '-' means association does not occur
[6] = biological target: T4, human Nectin-4 Mutant 7bis (human, UniProt Q96NY8 32-510); assay: as above
T4 construct: Expressed on transfected HEK293T cells; also called A72P/G73N/K197T/S199A
T4 chain: T1 chain with P27S, D28G, A30Q, A41P, G42N, D75N, A76P, K166T, S168A

B1: N41 (antibody, V domains shown)
VH: QVQLKQSGPGLVQPSQSLSITCTVSGFSLTNYGVHWVRQSPGKGLEWLGVIWSGGSTDYNAAFISRLSISKDTSKSQVFFKMNSLQADDTAIYYCARELIHAMDNWGQGTSVTVSS
VL: DIQMTQSPASLSVSVGETVTITCRASENIYSNLAWYQQKQGNSPQLLVFAATNLADGVPSRFSGSGSGTQYSLKINSLQSEDFGTYYCQHFWGTPTFGGGTKLEIK
binding result (human Nectin-4 Mutant 1): no binding
binding result (human Nectin-4 Mutant 7 [1]): binds

internalization efficiency on SUM190, normalized to chimeric parental antibody (Fab-ZAP, CTG), experiment 1 [2]: 100 % of chimeric parental
internalization efficiency on SUM190, normalized to chimeric parental antibody (Fab-ZAP, CTG), experiment 2 [2]: 100 % of chimeric parental
internalization efficiency on MDA-MB-468, normalized to chimeric parental antibody (Fab-ZAP, CTG), first column [3]: 100 % of chimeric parental
internalization efficiency on MDA-MB-468, normalized to chimeric parental antibody (Fab-ZAP, CTG), second column [3]: 100 % of chimeric parental
Kd [4]: 5.9 nM
koff [4]: 0.0027 s⁻¹
kon [4]: 480000 M⁻¹ s⁻¹
binding result (human Nectin-4 Mutant 7 [5]): no binding
binding result [6]: no binding
B2: chimeric parental 5E7 antibody (antibody, V domains shown)
VH: QVQLQQPGAELVKPGASVKLSCKASGYIFTSYWMHWVKQRPGQGLEWIGEIDPSDSYTNYNQKFKGKATLTLDKSSSTTYMQLSSLTSEDSAVYYCVRGYGNYGDYWGQGTTLTVSS
VL: DVVMTQAAFSNPVTLGTSASISCRSSKSLLHSNGITYLYWYLQKPGQSPQLLIYQMSNLASGVPDRFSSSGSGTDFTLRISRVEAEDVGVYYCAQNLELPWTFGGGTKLEIKR
notes: Chimeric antibody, murine variable domains with human constant regions; also called ch5E7; CHG1-M-1N4-5E7
